Measured values published in patent US10435681B2, “Compounds and methods for stabilizing thrombin activity” (Omrix Biopharmaceuticals Ltd., priority 2013, dated 2019).

Assays:
Format in all cases: biochemical
thrombin [1] = molecular target: T1, thrombin (Homo sapiens, UniProt P00734); assay: Thrombin stability testing: remaining clotting activity of 1000 IU/ml liquid thrombin after storage at 37° C.; settings: 1000 IU/ml thrombin
T1 construct: yields the active alpha thrombin molecule which is a 295 amino acid polypeptide (human) composed of a heavy and light chain

thrombin [2] = molecular target: T1, thrombin; assay: as above; settings: 0.5 mM peptide, 1000 IU/ml thrombin; for stabilization of thrombin activity (in words): 37° C., 0, 3 and 7 days
Method: Aqueous liquid thrombin, in its purified and concentrated form 1000 international units IU/ml may undergo autolysis at room temperature causing a significant loss of activity e.g. towards a heterologous substrate. E.g. thrombin activity towards a heterologous substrate is reduced when a liquid thrombin formulation is incubated at room temperature for prolonged periods of time (e.g. 72 to 144 hours), inter alia, due to autolytic degradation. The decrease of thrombin activity towards a heterologous substrate in aqueous liquid solution can be assessed by measuring thrombin activity after prolonged periods of time and under permissive temperature (e.g. 37° C.). In the following experiments, the effect of a peptide on the stability of thrombin was studied under different conditions.
Aqueous liquid purified and concentrated thrombin (1000 IU/ml; equivalent to about 10 μM) was aliquoted and placed in a 37° C. incubator for 3 days (72 hours), 7 days (168 hours) and 14 days (336 hours). Prior to incubation, thrombin samples were spiked with indicated amounts of different tested peptides or with a control thrombin inhibitor: benzamidine or arginine *HCl (“arginine”). Specific peptides, their concentrations, and thrombin inhibitors used are indicated in each Example. Following the incubation period, the samples were frozen at −80° C. until testing the thrombin activity. Just before thrombin activity assay testing, all the samples were thawed and 100-fold diluted into a dilution buffer (0.4% tri-sodium citrate di-hydrate, 0.9% sodium chloride and 1% BSA, pH=7.5) to bring the thrombin concentration in the sample to that within the specifications of the assay (4-10 IU/ml) and to dilute the tested peptides in the sample to a negligible concentration.
(§1) Thrombin activity was assessed by clotting time measurements using STart4 Coagulation Instrument (DIAGNOSTICA STAGO™, Asnieres sur Seine, France). The assay is a modification of the European Pharmacopoeia Assay procedure, 1997, 0903, p. 858. Briefly, a calibration curve was prepared by mixing thrombin standard with a fibrinogen solution of 0.1% fibrinogen content (Enzyme Research Laboratories, Ind., USA). Thrombin concentration in the different tested samples was then calculated from the calibration curve by their clotting time (the concentration was extrapolated from the calibration curve).
For stability testing of 1000IU/ml thrombin following storage with or without peptides, testing was carried out as described above. Dilutions (1:100) were carried out before measuring the activity.
All of these peptides (“mutant gamma loop peptides” identified in Example 3, random peptides, thrombin derived peptides, and “gamma loop binding peptides” mentioned above) were tested for their ability to stabilize thrombin activity at a concentration of 0.5 mM as described in Example 2.

thrombin [3] = molecular target: T1, thrombin; assay: Thrombin inhibition testing: clotting activity of 10 IU/ml thrombin towards fibrinogen in the presence of the additive; settings: 10 IU/ml thrombin
Method: as §1
For inhibition testing, the clotting activity of 10 IU/ml thrombin was measured in the presence or absence of peptides.
The assay was carried out as described in Example 1.

- stabilization of thrombin activity (in words) (thrombin [1]; 0.1 mM peptide, 144 hours at 37° C.): stabilization detected
- stabilization of thrombin activity (in words) (thrombin [1]; 0.2 mM peptide, 72 hours at 37° C.): already evident
- effect on thrombin activity (in words) (thrombin [3]; 0.2 mM peptide): not significantly affected
- remaining thrombin activity in presence of peptide (thrombin [3]; 0.5 mM peptide, FIG. 2D): about 80%
Sequence: GNLKETWTANVGKGQPS [SEQ ID NO:2, gamma loop peptide with flanking amino acids on N- and C-termini]
- stabilization of thrombin activity (in words) (thrombin [2]): capable of stabilizing liquid aqueous thrombin
- stabilization of thrombin activity (in words) (thrombin [2]; listed as SEQ ID NO: 2): efficient stabilization of thrombin activity
- thrombin stability (in words) (thrombin [2]; 72 and 144 hours at 37° C., FIG. 2C): an increase in thrombin stability was observed
